Test results published in publication PMC5905287, “Synthesis and in vitro biochemical evaluation of oxime bond-linked daunorubicin–GnRH-III conjugates developed for targeted drug delivery” (Beilstein Journal of Organic Chemistry, 2018).
Where two headings read alike, the source gives them in different places. Non-standard residues stand in square brackets, D forms with d. Residues, ends and D or L forms follow the SMILES beside them. *: point of attachment. Daunorubicin(13-NOCH2CO) = COc1cccc2c1C(=O)c1c(O)c3c(c(O)c1C2=O)C[C@@](O)(C(C)=NOCC(=O)*)C[C@@H]3O[C@H]1C[C@H](N)[C@H](O)[C@H](C)O1; pGlu = O=C1CC[C@@H](C(=O)O)N1; Butyryl = CCCC(=O)*

Legend:
[1] = Degradation in rat liver lysosomal homogenate (LC-MS); type: in vitro ADME; settings: for incubation time after which the smallest Dau-containing metabolite H-Lys(Dau=Aoa)-OH was detected: pH 5
Procedure: In order to gain insight into the cellular release of the drug, the degradation of the Dau–GnRH-III derivatives 1–6, K1 and K2 was determined in the presence of rat liver lysosomal homogenate at 37 °C. […] However, the degradation level and the cleavage sites within the GnRH-III sequence differ considerably depending on the incorporated amino acids, whereby the hydrolyses of the C-terminus (H-Gly-NH2 and H-Pro-Gly-NH2) occurred first in all eight GnRH-III derivatives. Due to the high chemical and enzymatic stability of the oxime bond, no free Dau was detected by LC–MS. In accordance with our previous results, the digestion of the two peptides containing L-Asp in position 6 (K1, K2) provided the smallest Dau-containing metabolite (H-Lys(Dau=Aoa)-OH, m/z 729.36 [M + H]^+). This metabolite could already be detected after 1 hour of incubation in case of K2 and after 2 hours in case of K1. […] It might be assumed that D-Trp of GnRH-III–[^4Lys(Bu), ^6D-Tpr, ^8Lys(Dau=Aoa)] (6) is also accepted at the cleavage site, but due to the prior hydrolysis of the ^7Trp-^8Lys(Dau=Aoa)-bond an evidential fragment has not been detected. A reason for these diversities might be the subsite specificities of the lysosomal proteases. For instance, lysosomal cysteine proteases also known as cathepsins show a broad substrate specificity. […] For instance, the analyzed fragments of the ^6L-Asp derivatives gave clear hints for the presence of endopeptidases, while the digestion of the ^6D-Aaa compounds 1–3 gave only fragments which evidence the activity of exomono- and/or dipeptidases. Moreover, the obtained results for the bioconjugates that contain ^4Lys(Bu) (K2, 4–6) instead of serine indicate a proteolytic cleavage by lysosomal endopeptidases, which might be of great importance for the release of the smallest Dau-containing metabolite.
The rat liver lysosomal homogenate was prepared as previously described. The protein concentration was determined by Qubit Protein Assay Kit according to the manufacturer’s protocol (ThermoFisher Scientific, Waltham, MA, USA). The bioconjugates were dissolved in ddH2O to a concentration of 5 µg/µL. The reaction was carried out in 0.2 M NaOAc buffer (pH 5), with an identical concentration of bioconjugate and rat liver lysosomal homogenate (0.25 µg/µL). The reaction mixtures were incubated at 37 °C and aliquots of 15 µL were taken at 5 min, 1 h, 2 h, 4 h, 8 h and 24 h and quenched with 2 µL of acetic acid. The analysis of the samples was performed by LC–MS.

[2] = biological target: T1, GnRH-RI (Homo sapiens, UniProt P30968); assay: Competitive inhibition of [125I][6D-Trp]-GnRH-I binding, human pituitary membranes; set-up: human prostate cancer cells were obtained from a patient at the time of initial surgical treatment; from tissue; host or cells: human prostate cancer specimen from a patient (surgery); membrane homogenate
T1 sequence (P30968 1-328): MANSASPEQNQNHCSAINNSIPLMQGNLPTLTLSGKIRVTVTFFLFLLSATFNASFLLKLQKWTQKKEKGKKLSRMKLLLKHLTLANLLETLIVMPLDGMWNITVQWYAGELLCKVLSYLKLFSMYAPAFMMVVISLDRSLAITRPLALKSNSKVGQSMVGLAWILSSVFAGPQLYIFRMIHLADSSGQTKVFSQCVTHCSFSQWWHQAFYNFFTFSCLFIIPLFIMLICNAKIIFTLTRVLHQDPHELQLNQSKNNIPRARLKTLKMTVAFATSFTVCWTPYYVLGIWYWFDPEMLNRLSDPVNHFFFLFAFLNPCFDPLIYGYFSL
Procedure: To investigate the binding affinity of the novel compounds to the GnRH-receptor, an in vitro ligand competition assay has been performed on human pituitary and GnRH-R positive human prostate cancer tissues. Hereby, the displacement of radiolabeled triptorelin by the unlabeled bioconjugates 1, 2, 4 and 5 was determined. For a better comparison, the bioconjugates K1 and K2 were also analyzed and used as reference. The obtained results summarized in Table 3 point out that all bioconjugates replaced [^125I]-triptorelin with IC50 values in low nanomolar range. […] (1.6 nM and 0.9 nM) and GnRH-II–[D-Lys^6(Dau=Aoa)] (4.2 nM and 2.1 nM).
Radiolabeled triptorelin was used for displacement studies to evaluate the binding affinity of the conjugates K1, K2, 1, 2, 4 and 5 to GnRH-RI on human pituitary and human prostate cancer cells. […] The binding affinities of the nonradio-labeled GnRH-III bioconjugates to GnRH-RI were determined by displacement of [^125I]-GnRH-I-[^6D-Trp] performing an in vitro ligand competition assay as recently reported. […] Supernatants were aspirated and the bottoms of the tubes containing the pellet were cut off and counted in a gamma counter. Protein concentration was determined by the method of Bradford using a Bio-Rad protein assay kit (Bio-Rad Laboratories, USA). […]

Row | SMILES | incubation time after which the smallest Dau-containing metabolite H-Lys(Dau=Aoa)-OH was detected [1] | IC50 ([2]; displacement of [125I]-triptorelin, human pituitary membranes, mean ± SE, read-out: IC50 pituitary) | incubation time after which the smallest Dau-containing metabolite H-Lys(Dau=Aoa)-OH was detected ([1]; rat liver lysosomal homogenate, 37 °C) | release of the smallest Dau-containing metabolite H-Lys(Dau=Aoa)-OH ([1]; rat liver lysosomal homogenate, 37 °C, up to 24 h) | IC50 [2]
1 | COc1cccc2c1C(=O)c1c(O)c3c(c(O)c1C2=O)C[C@@](O)(C(C)=NOCC(=O)NCCCC[C@H](NC(=O)[C@H](Cc1c[nH]c2ccccc12)NC(=O)[C@@H](CCC(=O)O)NC(=O)[C@H](Cc1c[nH]cn1)NC(=O)[C@H](CO)NC(=O)[C@H](Cc1c[nH]c2ccccc12)NC(=O)[C@H](Cc1c[nH]cn1)NC(=O)[C@@H]1CCC(=O)N1)C(=O)N1CCC[C@H]1C(=O)NCC(N)=O)C[C@@H]3O[C@H]1C[C@H](N)[C@H](O)[C@H](C)O1 [compound 2, [6D-Glu, 8Lys(Dau=Aoa)]] ([pGlu]HWSH[dE]WK(Daunorubicin(13-NOCH2CO))PG-NH2) | 24 h | 23.5 ± 2.1 nM | – | – | –
2 | CCCC(=O)NCCCC[C@H](NC(=O)[C@H](Cc1c[nH]c2ccccc12)NC(=O)[C@H](Cc1c[nH]cn1)NC(=O)[C@@H]1CCC(=O)N1)C(=O)N[C@@H](Cc1c[nH]cn1)C(=O)N[C@H](CCC(=O)O)C(=O)N[C@@H](Cc1c[nH]c2ccccc12)C(=O)N[C@@H](CCCCNC(=O)CON=C(C)[C@]1(O)Cc2c(O)c3c(c(O)c2[C@@H](O[C@H]2C[C@H](N)[C@H](O)[C@H](C)O2)C1)C(=O)c1c(OC)cccc1C3=O)C(=O)N1CCC[C@H]1C(=O)NCC(N)=O [compound 5, [4Lys(Bu), 6D-Glu, 8Lys(Dau=Aoa)]] ([pGlu]HWK(Butyryl)H[dE]WK(Daunorubicin(13-NOCH2CO))PG-NH2) | – | – | 24 h | identified in small amount | 7.9 ± 1.1 nM
